Experiment: yeast display, Sf9 membrane polyspecificity reagent, FACS + sequencing; frameworks hold sequencing errors
Outline: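 Polyreactivity labels are assigned by the sorting gate from which each nanobody was recovered. The gates were low and high (top ~1%), set on anti-HA fluorescence for expression and streptavidin fluorescence for reagent binding. Before sorting, galactose-induced (36–48 hours) yeast display cells were stained for 1 hour at 4 °C with 10% biotinylated, detergent-solubilized Sf9 membrane reagent.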

Sequence	polyreactivity (PSR sort gate)
QVQLVESGGGLVQAGGSLRLSCAASGSTFLRNAMGWYRQAPGKERELVATISRTGGTTYYADSVKGRFSISRDNAKTTVYLQMNSLKPEDTAVYYCAAYSKYGQHYDYWGQGTQVTVSS	high polyreactivity
QVQLVESGGGLVQAGGSLRLSCAASGSTFLRNAMGWYRQAPGKERELVATISTGSGRTYYADSVKGRFTISRDNAKNTVYLQMNSLKPEDTAVYYCATRVPLGPYYYGMYYWGQGTQVTVSS	high polyreactivity
QVQLVESGGGLVQAGGSLRLSCAASGSTFLRYAMGWYRQAPGKERELVAAISYRDGSTYYADSVKGRFTISRDNAKNTVYLQMNSLKPEDTAVYYCARGSWYRSAYYYWGQGTQVTVSS	high polyreactivity
QVQLVESGGGLVQAGGSLRLSCAASGSTFLRYAMGWYRQAPGKERELVADITTSGGITYYADSVKGRFTISRDNAKNTVYLQMNSLKPEDTAVYYCAARYLPYRRIKYDYWGQGTQVTVSS	low polyreactivity
QVQLVESGGGLVQAGGSLRLSCAASGSTFLSNAMGWYRQAPGKERELVAAISVSGARTYYADSVKGRFTISRDNAKNTVYLQMNSLKPEDTAVYYCNAGTSVRYTESSDYWGQATQVTVSS	high polyreactivity
QVQLVESGGGLVQAGGSLRLSCAASGSTFLSNAMGWYRQAPGKERELVAAITTSGTSTFYADSVKGRFTISRDNAKNTVYLQMNSLKPEDTAVYCAKDYLPYLHFVAPSTGDYDYWGQGTQVTVSS	low polyreactivity
QVQLVESGGGLVQAGGSLRLSCAASGSTFLTNTMGWYRQAPGKERELVAAISKSGGSTYYADSVKGRFTISRDNAKNTVYLQMNSLKPEDTAVYYCAAVRYVHFGYDYWGQGTQVTVSS	high polyreactivity
QVQLVESGGGLVQAGGSLRLSCAASGSTFLTNVMGWYRQAPGKEREFVAAITANGGRTYYADSVKGRFTISRDYAKMTVYLQMNSLKPEDTAVYYAVETAWSYNSNYWFDYWGEGTQVTVSS	high polyreactivity
QVQLVESGGGLVQAGGSLRLSCAASGSTFLVYAMGWYRPAPGKERELVAAITQIDGSTYNADSVKGRFTISRDNSKNTVYLQRHSLKPEDTAVYYCAARYFWTYEYDYWGQGTQVTVSS	low polyreactivity
QVQLVESGGGLVQAGGSLRLSCAASGSTFLVYAMGWYRQAPGKERELVAAINFSGSSTYYADSVKGRFTISRDNAENTVYLQMNSLKPEDTAVYYCAADSLELWYGYFWVKVPYDYWGQGTQVTVSS	low polyreactivity
QVQLVESGGGLVQAGGSLRLSCAASGSTFLWYAMGWYRQAPGKERELVAVIDWSGGSTSYADSVKGRFTISRDNAKNTVYLQMNSLKPEDTAVYYCAADYGHYYGLYYWGQGTQVTVSS	low polyreactivity
QVQLVESGGGLVQAGGSLRLSCAASGSTFLYNAIGWYRQAPGKERELVAAISSGGRTKYADSVKGRFTISRDTAKNTVYLQMNSLKPEDTAVYYCAAESYTGKYCWVWKWYDYWGQGTQVTVSS	low polyreactivity
QVQLVESGGGLVQAGGSLRLSCAASGSTFLYYAMGWSRQAPGKERELVAVISWSGVSTYYADSVKGRFTISRDNAKNSVYLQMNSLKPEDTAVYYCYTGYHYIRSYGYWGQGTQVTVSS	low polyreactivity
QVQLVESGGGLVQAGGSLRLSCAASGSTFLYYAMGWYRQAPGKERELVAVIRLDAGRTYYADSVKGRFTISRDNAKNTVYFQMNSLKPEDTAVYYCAAKGSFRTYGGGNYWGQGTQVTVSS	high polyreactivity
QVQLVESGGGLVQAGGSLRLSCAASGSTFLYYAMGWYRQAPGKESELVAAIDSGGSTYYADSVKGRFTISRDNAKNTVYLQMNSLKPEDTAVYYCNADPPPEYYPDKDNYWGQGTQVTVSS	low polyreactivity
QVQLVESGGGLVQAGGSLRLSCAASGSTFLYYAMGWYRQAPGKESELVARITTRVGRTYYADSVKGRFTISRDNAKNTVYLQMNSLKPEDTAVYYCNAPYLKSRFRAYYHWGQGTQVTVAS	high polyreactivity
QVQLVESGGGLVQAGGSLRLSCAASGSTFLYYAMGWYRQATGKERELVAAIDSGGSTYYADSVKGRFTISRDNAKNTVYLQMNSLKPEDTAVYYCNADFADHWPPNGPGAHDYWGQGTQVTVSS	low polyreactivity
QVQLVESGGGLVQAGGSLRLSCAASGSTFNAYAMGWYRQAPGKERELVAAITDGDSTNYADSVKGRSTISRDNAKNTVYLQMNSLKPEDTAVYYCAKDSSVGDGDDGWVWFDLYYWGQGTQVTVSS	low polyreactivity
QVQLVESGGGLVQAGGSLRLSCAASGSTFNAYDMGWYRQAPGKERELVAAISTSGDSTYFADSVKGRFTISRDNAKNTVYLQMNSLKPEDTAVYYCARDIYHYGYDYWGQGTQVTVSS	low polyreactivity
QVQLVESGGGLVQAGGSLRLSCAASGSTFNCYHMGWYRQAPGKEMELVAAITGSGGYTYYADSVKGRFTISRDNAKNTVYLQMKSLNPEETAVYYCAAKKVAGRRFYYWGQGTQVTVSS	low polyreactivity
QVQLVESGGGLVQAGGSLRLSCAASGSTFNDNAMGWYRQAPGKERELVAGISYSGGSTYYADSVKGRFTISRDHAKNTVYLQMNSLKPEDTAVYYCNADVTGLSQFGYWGQGTQVTVSS	low polyreactivity
QVQLVESGGGLVQAGGSLRLSCAASGSTFNDYDMGWYRQAPGNERELVAAISSGGSTYYADSVKGRFTISRDNAKNTVYLQMNSLKPEDTAVYYCAAVLGVWGGVGSEGDFWGQGTQVTVSS	low polyreactivity

Sequence	polyreactivity (PSR sort gate)
QVQLVESGGGLVQAGGSLRLSCAASGSTFNDYTMGWYRQAPGKERELVAAITDSGGSTYYADSVKGRFTISRDNAKNTVYLQMNSLKPEDTAVYYCAAAVPELYEVRYHDDYWGQGTQVTVSS	low polyreactivity
QVQLVESGGGLVQAGGSLRLSCAASGSTFNFYAMGWYRQAPGKDREFVAAITSSGDSTYYADSVKGRFTISRDNAKNTAYLQMNSLKPEDTAVYYCAARLRWRYSYDYWGQGTQVTVSS	high polyreactivity
QVQLVESGGGLVQAGGSLRLSCAASGSTFNGYAMGWYRQAPGKERELVAAISKRGGGTYYADSVKGRFTISRDNAKNTVYLQMNSLKPEDTAVYYCAAVSGPFVQTSGNGEYDYWGQGTQVTVSS	low polyreactivity
QVQLVESGGGLVQAGGSLRLSCAASGSTFNGYAMGWYRQAPGKERELVAAISSRSGRTYYADSVKGRFTISRDNAKNTVYLQMNSLKPEDTAVYYCAAYNGSRRQEFDYWGQGTQVTVSS	high polyreactivity
QVQLVESGGGLVQAGGSLRLSCAASGSTFNINAMGWYRPAPRKERELVARIRASGASTYYADSVKGRFTISRDNAKITVYLQMNSLKPDDTAVYYCAAYTYSFRANHDYWGQGTQVTVSS	high polyreactivity
QVQLVESGGGLVQAGGSLRLSCAASGSTFNIYAMGWYRQAPGKEREFVASIRWSGGSTYYADSVKGRFTISRDNAKNTVYLQMNSLKPEDTAVYYCAGRTFWGAYDYWGQGTQVTVSS	high polyreactivity
QVQLVESGGGLVQAGGSLRLSCAASGSTFNNAMGWYRQPPGKERELVAAITRSGVRTYYADSVKGRFTISRDNAKNTVYLQMNSLKPEDTAVYYCAAGFQSRRYYAGYEYWGQGTQVTVSS	high polyreactivity
QVQLVESGGGLVQAGGSLRLSCAASGSTFNQNAMGWYRQAPGKERELVAAITVDGSSTYYADSVKGRFTISRDNAKNTVYLQMNSLKPEDTAVYYCAAGYSARSSGYTGGYDYWGQGTQVTVSS	high polyreactivity
QVQLVESGGGLVQAGGSLRLSCAASGSTFNRNTMGWYRQAPGKERELVASINRGGSTYYADSVKGRFTISRDNAKNTVYLQMNSLKPEDTAVYYCAKRVRKSYTGTQAPKKFGYWGQGSQVTVSS	low polyreactivity
QVQLVESGGGLVQAGGSLRLSCAASGSTFNRYAMGWYRQAPGKERELVAAISSGGTTYYADSVKGRFTSSRDNAKNTVYLQMNSLKPEDTAVYYCNARKYGWVQRIIIYDYWGQGTQVTVSS	high polyreactivity
QVQLVESGGGLVQAGGSLRLSCAASGSTFNRYAMGWYRQAPGKERELVAAITSTGGTNYADSVKGRFTISLDNAKNTVYLQMNSLKPEDTAVYYCAKRWLRWRSNYWGQGTQVTVSS	high polyreactivity
QVQLVESGGGLVQAGGSLRLSCAASGSTFNRYAMGWYRQAPGKERELVASISCSGGASTYYADSVKGRFTISRDNAKNTVYLQMNSLKPEDTAVYYCAVSRDSYGGKGSVLYDYWGQGTQVTVSS	low polyreactivity
QVQLVESGGGLVQAGGSLRLSCAASGSTFNRYGMGWYIQAPGKERELVAAISGSNGGTYYADSVKGRFTISRDNAKNTVYLQMNSLKPEDTAVYFCAKVRAYTRLGLTVSMDYWGQGTKVTVSS	high polyreactivity
QVQLVESGGGLVQAGGSLRLSCAASGSTFNRYVMGWYRQAPGKERELVAANGGRTYYADSVKGRFTISRDNAKNTVYLQMNSLKPEDTAVYYCNARSYKHPYYRFDYWGQGTQVTVSS	high polyreactivity
QVQLVESGGGLVQAGGSLRLSCAASGSTFNSYAMGWYRQAPGKERELVAAISWSGGSTYYADSVKGRFTISRDNAKNTVYLQMNSLKPEDTAVYYCNADYWWEYAYGVDYWGQGTQVTVSS	low polyreactivity
QVQLVESGGGLVQAGGSLRLSCAASGSTFNSYARGWYRQAPGTERELVAAITSSVGSTYYADSVKGRFTISRDNAKNTVYLQMNSLKPEDTAVYYCDRDYFNREAFDYWGQGTQVTVSS	low polyreactivity
QVQLVESGGGLVQAGGSLRLSCAASGSTFNYNAMGWYRQAPGKEREFVAAISRSGGSTSYADSVKGRFTLSRDNAKNTVYLQMNSLKPEDTAVYYCAAYYRKTGYDYWGQGTQVTVSS	high polyreactivity
QVQLVESGGGLVQAGGSLRLSCAASGSTFNYNAMGWYRQAPGKERELVAAINRSGGRTYYADSVKGRFTISRDNAKNTVYLKMNSLKPEDTAVYYCAKRYYKSLNRDEFDSWGQGTQVTVSS	high polyreactivity
QVQLVESGGGLVQAGGSLRLSCAASGSTFNYNAMGWYRQAPGKERELVADISWRGGITYYADSVKGRFTISRDNAKNTVYLQMNSLKPEDTAVYYCNADAESFDDGYWGQGTQVTVSS	low polyreactivity
QVQLVESGGGLVQAGGSLRLSCAASGSTFNYYAMGWYRQAPGKERELVAVITNGGTTYYADSVKGRFTISRDNAKNTVYLQMNSLKPEDTAVYYCAAALLGRSKRFYYWGQGTQVTVSS	high polyreactivity
QVQLVESGGGLVQAGGSLRLSCAASGSTFPANAMGCYRQAPGKERELVATISWSCGRTYYADSVKGRFTISRDNAKNTVYLQMNSLKPEDSAVYYCAKGYYWLSTYGDSRYGYWGQGTQVTVSS	high polyreactivity
